From PMC5458082, “Fibril polymorphism affects immobilized non-amyloid flanking domains of huntingtin exon1 rather than its polyglutamine core” (Nature Communications, 2017)

B1: htt^NTQ23P10K2 peptide (peptide)
peptide: MATLEKLMKAFESLKSFQQQQQQQQQQQQQQQQQQQQQQQPPPPPPPPPPKK
notes: written out from the printed formula Q23P10K2: 23 Gln, 10 Pro, 2 Lys; also called shorter peptides with a 23-residue polyQ domain
B2: mutant huntingtin exon1 with a 44-residue polyQ domain, released from the MBP fusion protein by Factor Xa (domain or fragment)
chain: MATLEKLMKAFESLKSFQQQQQQQQQQQQQQQQQQQQQQQQQQQQQQQQQQQQQQQQQQQQPPPPPPPPPPPQLPQPPPQAQPLLPQPQPPPPPPPPPPGPAVAEEPLHRPSGS
notes: huntingtin exon1; The polyQ domain is expanded to 44 Gln against the UniProt entry. numbers count on: this Q44 construct from Met1; linker before the C-terminal His6, translated from the printed DNA; Uniformly 13C,15N-labelled for the ssNMR samples; Forms narrow (~6 nm) fibrils at 37 °C and wide (~15 nm) fibrils at 22 °C; both are the same chain; also called htt exon1; mutant htt exon1; source: …

What was measured:
[1] = biological target: B2; test: seeded and unseeded aggregation kinetics (ThT fluorescence + HPLC-based sedimentation assay); disaggregated htt^NTQ23P10K2 peptide in PBS pH 7.0 at 37 °C, with or without 20 mol-% sonicated htt exon1 fibril seeds formed at 22 or 37 °C; conditions: both partners purified
[2] = biological target: the molecule itself; test: fibril formation, seen by negative-stain TEM + FTIR + MAS solid-state NMR; htt exon1 released from the MBP fusion by Factor Xa at 22 or 37 °C in PBS pH 7.4 with 0.02% sodium azide; mature fibrils pelleted and washed

binding result [1]	Binder	binding result [2]
binds	B1	
	B2	binds
